In paper PMC9646764:
pKd: −log10 of the molar value. Read-outs that look alike come from different tables or passages of the source.

Columns and labels:
Test in all cases: BLI
[1] = target: TFPI-Fc (human IgG-Fc-tagged TFPI without the GPI anchor) (UniProt P10646); details: for response: parent: est. 0.0, read off a plot
[2] = target: Chicken TFPI-Fc (chicken); details: domain or fragment
[3] = target: mTFPI-Fc (Fc-tagged mouse TFPI) (mouse) (UniProt O54819)
[4] = target: mTFPI-Fc (Fc-tagged mouse TFPI) (UniProt O54819); details: 2000 nM fragment, read at end of association (~145 s), parent: est. 0.03, read off a plot
Chain of mTFPI-Fc (Fc-tagged mouse TFPI) (O54819 29-217): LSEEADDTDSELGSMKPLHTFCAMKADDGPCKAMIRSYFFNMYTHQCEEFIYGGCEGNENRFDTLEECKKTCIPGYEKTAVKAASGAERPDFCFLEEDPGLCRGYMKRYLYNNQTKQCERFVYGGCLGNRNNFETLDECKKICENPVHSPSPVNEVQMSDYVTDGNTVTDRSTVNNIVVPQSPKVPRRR

Chain of mTFPI-Fc (Fc-tagged mouse TFPI) (mouse) (O54819 29-217): as above
Chain of TFPI-Fc (human IgG-Fc-tagged TFPI without the GPI anchor) (P10646 29-209): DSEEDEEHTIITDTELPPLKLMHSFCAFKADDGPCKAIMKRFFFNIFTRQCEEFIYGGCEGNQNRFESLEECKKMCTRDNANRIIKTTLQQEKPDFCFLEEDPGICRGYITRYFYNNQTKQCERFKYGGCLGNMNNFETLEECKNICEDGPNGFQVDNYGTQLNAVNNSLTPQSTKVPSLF

TcdB2.1_(1285-1804) L1505P; C1509Y; E1547K; N1596K; Q1599K
response [1]: 0.1 nm

TcdB2.1_(1285-1804) S1495I
response [1]: 0.38 nm

TcdB2.1_(1285-1804) S1495I; L1505P; C1509Y; E1547K
response [1]: 0.62 nm

TcdB2.1_(1285-1804) S1495I; L1505P; C1509Y; N1596K; Q1599K
response [1]: 0.66 nm

TcdB2.11_(1286-1805)
pKd [2]: 6.69
koff [2]: 0.0165 s⁻¹
pKd ([1]; domain or fragment): 6.88
koff ([1]; domain or fragment): 0.0109 s⁻¹
pKd ([3]; domain or fragment): 7.04
koff ([3]; domain or fragment): 0.00623 s⁻¹

TcdB4.2_(1286-1805) (domain or fragment)
pKd [1]: 7.30
pKd [3]: 7.62

TcdB11.2_(1285-1804) F1506S; D1511Y
response [4]: 0.74 nm

TcdB11.2_(1285-1804) F1506S; D1511Y; F1597S; V1598L
response [4]: 0.67 nm

TcdB11.2_(1285-1804) F1597S; V1598L
response [4]: 0.13 nm
